Article PMC6220335, “Molecular structure of promoter-bound yeast TFIID” (Nature Communications, 2018)

B1: Taf8, subunit of Komagataella phaffii TFIID (natural protein, UniProt F2QT15 1-517, looked up)
chain: MADKSDDNQSLVSVSSASSGKENPNSVGQRSMNPTLSHEEQHDQEVQERYNTGKDLNITSQPECVPAMEVALKASVLLILSSLGVQASSLSIDHLTYITTKYIDRLVSELHRSTEIQRRRTIAKRDVQLVVDRGILDLEDVTLEYERLKLTRKRVKPSIEKLSKYASELKESASSVQVSENDKDAFFFFDIAEKISEFMPLRMKRKNYIPKWMPVLPPEHTYVATPQFTEVISDPKELREQLTAESRLGEKALQHLIGTKIVEDKKEDVGNENDNDIDKEIHHGEIDVESDHNLEKGPNGETNGVQSQPPKSMVSSKRFDIVAHAKHRLSVLEKRKRHQEQLLENRRKEIDGLVGQYLGYYATKKIEPPVSDIIVNIMNTEYYHVSREISKSEHRKQKIQESQQLKRRKLEDELQQELEHQTEDIDFEFNFDEDDVDMNKNLNENLNENENDDEQVLIEEDTSFDITNGDIEKTNQETPFTNGSSKQWDSNNAILDSTNSEPEPEPPIADLFNVDSS
notes: Taf8, TFIID subunit of the yeast Komagataella phaffii (formerly Pichia pastoris); putative helices placed in the cryo-EM map; also called KpTaf8; source: endogenous, K. phaffii nuclear extract; co-purified in TFIID by SBP-tagged Taf2 (streptavidin beads, sucrose gradient)
B2: Taf4, subunit of Komagataella phaffii TFIID (natural protein, UniProt F2QWX2 1-411, looked up)
chain: MSSTPDGSTPVDSGKRTSDQIDVGEYKRVKVERGNRSETVDSGLIDMSNSVGASLDIPTPDQLNPTNTGVQTPSLHQPGESISAHSLSLPGETSVGGSTGISRENTPQVRPDVSVSQSSSQLHQRNESFPGLSVSKSTTSLNKDTMFDNRKRLLGNNGANPNGQKSSDPEKLSDALTAAGVDLKEEESLLSQSTVIQQSRRQLSTLSSFLHPVHLATFMRRVMENNGLRNYVDHDTELLSYMSSACEGFMAGILTDSVILANHRKRPIKSKLKHSTTPRSDVSKVLRDIATKQKEREEQRVQKRVTLDIEGQEDDGKSKQDNEEVLHRAANATAMMMTSKSKKKKYSWMNADSGAQGGKTNSVLARGDSGIRYRDAREEPGLVLRDLLGALEGRRMCVANTVVKGYARMND
notes: Taf4, TFIID subunit of the yeast Komagataella phaffii (formerly Pichia pastoris); histone-fold domain modelled in the cryo-EM map; source: endogenous, K. phaffii nuclear extract; co-purified in TFIID by SBP-tagged Taf2 (streptavidin beads, sucrose gradient)
B3: Taf12, subunit of Komagataella phaffii TFIID (natural protein, UniProt F2QSK7 1-609, looked up)
chain: MNQPPNQPQDNDSQVSSSGMQGGNSMNYSSSAPVNGAGQGPQPQQNSQGQNGKKPVGMQQAQIQLLARRYQLEMQKAHQLGPQTPQGAEHLQTATKIKHVLLSYQQQRQRQQGQVQGQGLSQPQGQNQAQGRVQQQTQGLSPDPGSHQGSPQFQQPHQVMMGSAQTAGTSIANPQAQSNISSQVSQMAAAKVNSASPPIPPKTVGTPTGTPVGTQPRGQVTIQQFQQVKSILEEFEKKLRTIEAAKRDQNLPEETLQKLLRQEAILKQRYAQTKATAYQMSQHLQRQQQALRAASAESAEVYVTGSASSPNMNVYNQQILTQQPQQQLQQQQLHQPQPQQPQPARQSPHLLIHQQQQQQQQQQQQQQQQQQHPVTHRPSNVSQTMPQPSQPLQSSTPSSAVGRNQSPGATPVTSVNAAAKPSPGTSSTSTLINQHILKPAPPPTEIPARLQVKPPQPAAMKIPNRPTLLGGSAISQPSLTTPVSIRPPPLEMEGDHVLQKRKLKELLRNVGADEGDGETVIDGDVEELLLDLADEFVTSVTSFACRLAKHRKVDNIDMRDVQLHLERNWNIRVPGYASDEIRSVRKFQPTAGYNQKVQGVAISKSVNKN
notes: Taf12, TFIID subunit of the yeast Komagataella phaffii (formerly Pichia pastoris); histone-fold domain modelled in the cryo-EM map; source: endogenous, K. phaffii nuclear extract; co-purified in TFIID by SBP-tagged Taf2 (streptavidin beads, sucrose gradient)
B4: Taf5, subunit of Komagataella phaffii TFIID (natural protein, UniProt F2QWD3 1-722, looked up)
chain: MKQEPGDSSDKSAPSGSITPQPKPPQQANVSNQQPQKPQQFSAADLNRIVLEYLNKKGYHKTESMLRMESSHIPAPPTNIPTPQTTNISRPTAPGRAPEYSDDPATIKRGYSILKSWCESSLDFYRPELEKFLYPVFVHCYLDLIARGYPSHAREFYDKFSKDHSVLHEYEISKLGGISLKEHLQENDVAKIFRSHKFKVLIGRTTFNLLLYFLNENDAVGGGVVLRLINQYIEPVITTEAIAVEREGELNLSEGIVELHTLNNTSIGGEQREISSVDAFNKKPVKLGKLQVDPEYSKELEAELKLKDEHEQAAQKKVSTTLLEEYRENFKVDPSDENNPSKDTLPLPLKSAQDLRNDIAMIQDSRAKIKLSAAQASLPSVCMYTFHNTNNDLTCLKFNDDSTMVASGFQDSFIKLWSIDGSPLRSLLKNDPYNQQNNDGVAVKGSRRLVGHSGAVYGVDFSPDNRYLISCSEDKTVRLWSLDTYTCLVSYKGHSSSVWDVKFSPMGHYFATASHDQTARLWSCDHIYPLRIFAGHLNDVDCVEFHPNSTYLFTGSSDKTARMWDIARGECVRVFMGHSGAINCLAVSPDGRWLASAGEDSVVCLWDISTGRRIKAMRGHGRSSIYSLAFSREGTVLVSTGADNSVRVWDVKKNTNSPSAQPEPINDVTAQGIQKKTEDLRRRKEIVATNDHMSVYFTKKTPVYTVHFTRRNLCLAGGVFGG
notes: Taf5, TFIID subunit of the yeast Komagataella phaffii (formerly Pichia pastoris); WD40 repeat and NTD (residues 99–243) modelled in the cryo-EM map; two copies in holo-TFIID; source: endogenous, K. phaffii nuclear extract; co-purified in TFIID by SBP-tagged Taf2 (streptavidin beads, sucrose gradient)
B5: Taf1 (TBP-associated factor 1), subunit of Komagataella phaffii TFIID (natural protein, UniProt F2QMX2 1-1010, looked up)
chain: MDVDFDNALNGQVGGFDQFFDGTTKHADNAIDFSDEEELADEEVGDAPQRRTDVDDEHKPPEGTYEMNLSGSEKEDLLFKNLEREASEGTELPLPTIGGLKVPNFDNNIGLNETISERNECNQISNSHFVKHLEKTMIRTQMLKYYYPSFQKSKPISFSSLFPPPLASFQLYDGRDCTPLLPLKALQEVDPDEKKIFKSSFSAHQSKGDKRSQSVKHIELMELESNNTQIPPRKQKETLKHLDRNIVLSTLSWDDTELLSDKLEERHNRNRTKPNFQQMQYDDWDVDTDMILEGTLDTSRLNLKLDMNDPHLLFLNQKHKPSPAGKMNARFPMNSKSFEMKFNISNDMQYQMLKDNYQSKIRSTIGNLSIDHSIPATILQTPFYKVKLSKQELRRFHRPVFNSRPNSTILFSKIKTRKKKKDRGKETKELFKKSVDLTLGDSASFFLLEYSEEQPVALSNFGMGSKLINYYRKLNDDDNSRPKLPVGETHVLGVQDRSPFWNFGFVEPGNLVPTFYNNMVRAPIFRHEPEETDFLLIRSSGGGISPRYFLRSLDHVFTVGQTFPVVDVPGPHSRKVTSTSKNRLKMIVYRVLNKNERHRLVVKDISIHFPDQNDMQNRQRLKEFMEYQKNGEDHGFWKIKGNEILPGFKEIQQMIQPEDIALLEAMQFGQLNLEDYDSLREETLIGQTTATTEEALQVQMAPWSTTKNFIQATQGKAMLQVHGIGDPSKKGEAISFLRISMKGGFKSSMEDIVEKAEQMDNKKSQGHSYNVAVQQKMYDEEISRVWYAQQRALSKTSDMMERELGPTEAPTASSVYDDQNQITEMAKTLEEFVLSPLQTTVSSVKPASIKEKKHMKITRMVRDQNGILQRRTQLVTDQKVIAAYIQRKQEQEKAEIDAEKISFTNDEEQNRRAKKILEEELERLEKSKERRIARKKLKEGLPVVSSLSNTDSDARLSGKGIGKGKSTSRRCATCGALGHIRTNKACPMYYSAMNKSNPNMSDLPVYDIQY
notes: Taf1, TFIID subunit of the yeast Komagataella phaffii (formerly Pichia pastoris); native subunit of the purified complex; also called KpTaf1; source: endogenous, K. phaffii nuclear extract; co-purified in TFIID by SBP-tagged Taf2 (streptavidin beads, sucrose gradient)
B6: Taf6, subunit of Komagataella phaffii TFIID (natural protein, UniProt F2QMA7 1-485, looked up)
chain: MSKNSQRSSIPTSHTLWSPSDTVKDAAESLGIFNLNEEAAKNLAMDIEYRIHEILDQASKFMRHGKRRTLHTSDIDRALKVLNLEPLYGYDVSRPLVFKEALVGAGQNLYYVDDDEVDFEKLINEPLPKVPRFSTFTAHWLAIEGVQPAIPQNPSPNDIKNILPINRGSMENMFSLINDEVKEDTNEEFTSTGPSVSSNISNQKQGLEVKPLVKHVLSRELQLYFDKIVEVLLNQEETKEAELLRNSALQSVRADPGLHQLVPYFIQFISETITKNLKNISLLSTMLELIYSLLMNESLFLEPYVHAIIPCILTLLLAKKIGNVDDELQKQQQLALRELSASLLERVIEDFGSSYSTLKPRITRTLLRAFVSVNNTTPGTQYGALLGLRGLGSEVIRIVVLGNVINWSSTFLEKLQQEDQVFLIDTLIETLRVLTKEGKLVKDMKTENGIDNERLKQRVGDLIADRIQACDDAQDIYWGIFFGEV
notes: Taf6, TFIID subunit of the yeast Komagataella phaffii (formerly Pichia pastoris); HEAT repeats (residues 213–486) and histone-fold domain modelled in the cryo-EM map; two copies in holo-TFIID; source: endogenous, K. phaffii nuclear extract; co-purified in TFIID by SBP-tagged Taf2 (streptavidin beads, sucrose gradient)

Assays:
[1] = molecular target: T1, Taf2 with C-terminal streptavidin-binding peptide tag, subunit of Komagataella phaffii TFIID (Komagataella phaffii, UniProt F2QRH9 1-1571); assay: cross-linking; 50 µg purified TFIID, 3 mM BS3, 2 h at 25 °C; trypsin, SCX fractionation, Orbitrap Fusion MS; pLink and Nexus, 5% FDR; conditions: both partners purified
T1 construct: Taf2, TFIID subunit of the yeast Komagataella phaffii (formerly Pichia pastoris); residues 36 to 1194 modelled in the cryo-EM map; bait of the purification; also called SBP-tagged Taf2; source: K. phaffii strain with SBP-tagged Taf2, nuclear extract; purified (streptavidin beads, biotin elution, sucrose gradient)

[2] = molecular target: B3; assay: as above; conditions: both partners purified
[3] = molecular target: B4; assay: as above; conditions: both partners purified
[4] = molecular target: the molecule itself; assay: cryo-EM structure; purified TFIID (0.4 µM) with two-fold excess of TFIIA and 2.5–3-fold excess of pGAP promoter DNA, cross-linked with 0.1% glutaraldehyde; focused refinement of the lobes (Taf2 lobe 4.5 Å, Twin lobe 4.8 Å); homology models docked
[5] = molecular target: T1, Taf2 with C-terminal …; assay: affinity purification with mass spectrometry; TFIID purified from K. phaffii nuclear extract by the SBP tag at the C-terminus of Taf2 (streptavidin beads, 250 mM potassium acetate, elution with 10 mM biotin, 10–30% sucrose gradient); SDS-PAGE and mass spectrometry of the purified complex; conditions: partners not purified

Does B1 bind [1]?
Result: binds

Does B2 bind [2]?
Result: binds

Does B2 bind [3]?
Result: binds

Does B3 bind [3]?
Result: binds

With B4 as the binder, how does the “stoichiometry N” value [4] read?
The value was 2.

Does B5 bind [5]?
Result: binds

How did the “stoichiometry N” value [4] turn out when B6 was run?
Its value is 2.
